Positions count from the first letter of the chain named. Names and notes keep the numbering of the source.
T1: rat CD40 antigen (ACROBiosystems) (rat, UniProt A6JXD6 20-193)
T1 construct: Bought antigen coated on ELISA plates; construct not described
T1 sequence: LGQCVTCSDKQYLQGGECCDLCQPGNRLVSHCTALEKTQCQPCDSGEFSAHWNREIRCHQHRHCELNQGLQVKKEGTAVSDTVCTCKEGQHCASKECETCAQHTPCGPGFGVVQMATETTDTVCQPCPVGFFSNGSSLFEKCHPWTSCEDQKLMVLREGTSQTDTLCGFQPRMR

B1: anti-CD40 monoclonal antibody 1653CD (antibody, human IgG2, kappa, V domains shown)
VH: EVQLVESGGGLVQPGGSLRLSCAASGFTFSDYYMSWVRQAPGKGLEWVGFIRNKANAYTTEYAASVKGRFTISRDNSKSTLYLQMNSLRAEDTAVYYCARYGGLKKGWYFDLWGQGTLVTVSS
VL: DIQMTQSPSSLSASVGDRVTITCRASQGIRNYLNWYQQKPGKAPKLLIYYTSSLQSGVPSRFSGSGSGTDYTLTISSLQPEDFATYYCQQGINLPWTFGGGTKVEIKR
B2: anti-CD40 monoclonal antibody 1605CD (antibody, human IgG2, kappa, V domains shown)
VH: B1 VH with D31N, G49A, L104I, K105R, K106V
VL: B1 VL with G28D, S53R, I92Q, N93S, L94F
B3: anti-CD40 monoclonal antibody 1606CD (antibody, human IgG2, kappa, V domains shown)
VH: B1 VH with A57G, S79N, K105R, K106Q, L112V
VL: B1 VL with G28D, S53R, L54R, Q55D, Y87F, I92K, N93T
B4: anti-CD40 monoclonal antibody 1607CD (antibody, human IgG2, kappa, V domains shown)
VH: B1 VH with A57G
VL: B1 VL
B5: anti-CD40 monoclonal antibody 1608CD (antibody, human IgG2, kappa, V domains shown)
VH: B1 VH with D31N, A57G, S87R, K106V
VL: B1 VL with G28S, R30S, N34A, Y50A, T51A, I92S, N93S, L94Y
B6: anti-CD40 monoclonal antibody 1609CD (antibody, human IgG2, kappa, V domains shown)
VH: B1 VH with D31N, A57G, K106I
VL: B1 VL with G28T, R30S, N31S, S53T, I92N, N93A, L94Y
B7: anti-CD40 monoclonal antibody 1652CD (antibody, human IgG2, kappa, V domains shown)
VH: B1 VH with S79N, K105R, K106Q, L112V
VL: B1 VL with G28D, S53R, L54R, Q55D, Y87F, I92K, N93T
B8: anti-CD40 monoclonal antibody 1654CD (antibody, human IgG2, kappa, V domains shown)
VH: B1 VH with D31N, S87R, K106V
VL: B1 VL with G28S, R30S, N34A, Y50A, T51A, I92S, N93S, L94Y
B9: anti-CD40 monoclonal antibody 1655CD (antibody, human IgG2, kappa, V domains shown)
VH: B1 VH with D31N, K106I
VL: B1 VL with G28T, R30S, N31S, S53T, I92N, N93A, L94Y
B10: anti-PD-L1/CD40 bispecific antibody 1653 (bispecific antibody, human IgG2, kappa)
light: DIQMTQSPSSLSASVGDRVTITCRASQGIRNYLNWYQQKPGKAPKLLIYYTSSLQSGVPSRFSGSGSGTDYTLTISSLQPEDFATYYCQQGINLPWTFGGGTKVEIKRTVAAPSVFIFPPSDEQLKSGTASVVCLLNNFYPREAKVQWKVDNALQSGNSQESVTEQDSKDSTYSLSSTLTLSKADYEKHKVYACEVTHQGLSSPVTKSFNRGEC
heavy: EVQLVESGGGLVQPGGSLRLSCAASGFTFSDYYMSWVRQAPGKGLEWVGFIRNKANAYTTEYAASVKGRFTISRDNSKSTLYLQMNSLRAEDTAVYYCARYGGLKKGWYFDLWGQGTLVTVSSASTKGPSVFPLAPCSRSTSESTAALGCLVKDYFPEPVTVSWNSGALTSGVHTFPAVLQSSGLYSLSSVVTVPSSNFGTQTYTCNVDHKPSNTKVDKTVERKCCVECPPCPAPPVAGPSVFLFPPKPKDTLMISRTPEVTCVVVDVSHEDPEVQFNWYVDGVEVHNAKTKPREEQFNSTFRVVSVLTVVHQDWLNGKEYKCKVSNKGLPAPIEKTISKTKGQPREPQVYTLPPSREEMTKNQVSLTCLVKGFYPSDIAVEWESNGQPENNYKTTPPMLDSDGSFFLYSKLTVDKSRWQQGNVFSCSVMHEALHNHYTQKSLSLSPGGGGGSGGGGSGGGGSGEVQLVESGGGLVQPGGSLRLSCAASGFTFDYYTQCWFRQAPGKEREWVSCISSSEGSTYYADSVKGRFTISRDNSKNTVYLQMNSLKTEDTAVYYCAARKGGPLTIENFFDYWGQGTQVTVSS
notes: First polypeptide chain = anti-CD40 light chain; second polypeptide chain = anti-CD40 heavy chain with the 1541 VHH joined to its C-terminus by a G4S linker
B11: anti-PD-L1/CD40 bispecific antibody 1605 (bispecific antibody, human IgG2, kappa)
light: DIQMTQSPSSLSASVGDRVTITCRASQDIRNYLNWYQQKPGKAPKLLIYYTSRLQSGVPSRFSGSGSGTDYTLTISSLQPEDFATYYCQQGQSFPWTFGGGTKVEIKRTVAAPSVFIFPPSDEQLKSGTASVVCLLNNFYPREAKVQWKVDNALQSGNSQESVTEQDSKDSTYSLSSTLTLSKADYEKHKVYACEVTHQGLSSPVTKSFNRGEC
heavy: B10 heavy with D31N, G49A, L104I, K105R, K106V
notes: as for B10

Biological target: T2, human CD40 antigen (ACROBiosystems) (human, UniProt P25942 21-193)
T2 construct: Bought antigen coated on ELISA plates; construct not described
Experiment: ELISA, coated antigen
Protocol: (§1) The binding ability of monoclonal antibody to human CD40, as well as the species specificity, was detected using an enzyme-linked immunosorbent assay (ELISA). The specific method is as follows: human CD40, cynomolgus CD40, rat CD40, and mouse CD40 antigens (all purchased from ACROBiosystems) were coated with 1 μg/mL carbonate buffer (pH=9.6) in an ELISA plate at 100 μL per well, followed by incubation at 4° C. overnight. The wells were washed 5 times with PBST. 300 μL/well of PBST containing 1% BSA was added to block the wells, and the plate was incubated at room temperature for 1 hour. The wells were washed 5 times with PBST. […] The wells were washed 5 times with PBST. […] The wells were washed 5 times with PBST. Colorimetric substrate TMB was added at 100 μL per well and allowed to develop color at room temperature for 10 minutes, followed by the addition of 1 M sulfuric acid to terminate the reaction. The OD₄₅₀ nm was read on a microplate reader to analyze the results, and the EC₅₀ was calculated using a 4-parameter fit binding curve.

T2 sequence (P25942 21-193 limits assumed): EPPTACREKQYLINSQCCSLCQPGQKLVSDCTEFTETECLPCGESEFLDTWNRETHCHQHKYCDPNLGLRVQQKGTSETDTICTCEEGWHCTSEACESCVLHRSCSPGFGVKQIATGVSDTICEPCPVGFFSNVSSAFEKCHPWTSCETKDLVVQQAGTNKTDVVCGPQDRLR

| EC50 | Binder |
| --- | --- |
| 20 pM | B1 |
| 22 pM | B2 |
| 24 pM | B3 |
| 21 pM | B4 |
| 22 pM | B5 |
| 22 pM | B6 |
| 22 pM | B7 |
| 14 pM | B8 |
| 24 pM | B9 |

Biological target: T3, cynomolgus CD40 antigen (ACROBiosystems) (cynomolgus, UniProt G7PG38 21-193)
T3 construct: Bought antigen coated on ELISA plates; construct not described
Experiment: ELISA, coated antigen
Protocol: as §1

| EC50 | Binder |
| --- | --- |
| 18 pM | B1 |
| 21 pM | B2 |
| 20 pM | B3 |
| 17 pM | B4 |
| 21 pM | B5 |
| 20 pM | B6 |
| 18 pM | B7 |
| 15 pM | B8 |
| 9 pM | B9 |

Biological target: T1, rat CD40 antigen (ACROBiosystems)
Experiment: ELISA, coated antigen
Protocol: as §1

| binding result | Binder |
| --- | --- |
| no binding | B1 |
| no binding | B2 |
| no binding | B3 |
| no binding | B4 |
| no binding | B5 |
| no binding | B6 |
| no binding | B7 |
| no binding | B8 |
| no binding | B9 |

Biological target: T4, mouse CD40 antigen (ACROBiosystems) (mouse, UniProt P27512 24-193, limits assumed)
T4 construct: Bought antigen coated on ELISA plates; construct not described
Experiment: ELISA, coated antigen
Protocol: as §1

T4 sequence (P27512 24-193 limits assumed): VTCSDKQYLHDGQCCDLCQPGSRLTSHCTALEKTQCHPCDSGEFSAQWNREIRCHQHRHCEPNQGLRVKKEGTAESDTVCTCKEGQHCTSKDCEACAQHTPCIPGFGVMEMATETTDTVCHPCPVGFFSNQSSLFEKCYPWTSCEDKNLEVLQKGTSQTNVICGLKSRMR

| binding result | Binder |
| --- | --- |
| no binding | B1 |
| no binding | B2 |
| no binding | B3 |
| no binding | B4 |
| no binding | B5 |
| no binding | B6 |
| no binding | B7 |
| no binding | B8 |
| no binding | B9 |

Biological target: T2, human CD40 antigen (ACROBiosystems)
Experiment: ELISA, coated antigen
Remark: another data set of the same source
Protocol: (§2) The binding ability of bispecific antibody to human PD-L1 and human CD40, as well as the species specificity, was detected using an enzyme-linked immunosorbent assay (ELISA). The specific method is as follows: human PD-L1, cynomolgus PD-L1, rat PD-L1, mouse PD-L1, human CD40, cynomolgus CD40, rat CD40, and mouse CD40 antigens (all purchased from ACROBiosystems) were coated with 1 μg/mL carbonate buffer (pH=9.6) in an ELISA plate at 100 μL per well, followed by incubation at 4° C. overnight. The wells were washed 5 times with PBST. 300 μL/well of PBST containing 1% BSA was added to block the wells, and the plate was incubated at room temperature for 1 hour. The wells were washed 5 times with PBST. […] The wells were washed 5 times with PBST. […] The wells were washed 5 times with PBST. Colorimetric substrate TMB was added at 100 μL per well and allowed to develop color at room temperature for 10 minutes, followed by the addition of 1 M sulfuric acid to terminate the reaction. The OD_{450 nm} was read on a microplate reader to analyze the results, and the EC₅₀ was calculated using a 4-parameter fit binding curve.
(§3) These bispecific antibodies are not able to bind to rat PD-L1 and CD40 or mouse PD-L1 and CD40.

| EC50 | Binder |
| --- | --- |
| 20 pM | B10 |
| 24 pM | B11 |

Biological target: T3, cynomolgus CD40 antigen (ACROBiosystems)
Experiment: ELISA, coated antigen
Remark: another data set of the same source
Protocol: as §2, §3

| EC50 | Binder |
| --- | --- |
| 18 pM | B10 |
| 20 pM | B11 |

Biological target: T1, rat CD40 antigen (ACROBiosystems)
Experiment: ELISA, coated antigen
Remark: another data set of the same source
Protocol: as §2, §3

| binding result | Binder |
| --- | --- |
| no binding | B10 |
| no binding | B11 |

Biological target: T4, mouse CD40 antigen (ACROBiosystems)
Experiment: ELISA, coated antigen
Remark: another data set of the same source
Protocol: as §2, §3

| binding result | Binder |
| --- | --- |
| no binding | B10 |
| no binding | B11 |

Biological target: T5, human PD-L1 antigen (ACROBiosystems) (human, UniProt Q9NZQ7 19-238)
T5 construct: Bought antigen coated on ELISA plates
Experiment: ELISA, coated antigen
Protocol: as §2, §3

T5 sequence (Q9NZQ7 19-238 limits assumed): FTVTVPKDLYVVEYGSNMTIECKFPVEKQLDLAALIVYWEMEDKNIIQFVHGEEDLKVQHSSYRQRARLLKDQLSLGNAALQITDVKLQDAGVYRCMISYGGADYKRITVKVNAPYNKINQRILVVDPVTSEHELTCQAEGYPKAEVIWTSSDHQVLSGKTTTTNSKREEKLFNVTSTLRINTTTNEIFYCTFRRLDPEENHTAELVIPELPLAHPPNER

| EC50 | Binder |
| --- | --- |
| 39 pM | B10 |
| 50 pM | B11 |

Biological target: T6, cynomolgus PD-L1 antigen (ACROBiosystems) (cynomolgus, UniProt G7PSE7 19-238)
T6 construct: Bought antigen coated on ELISA plates; construct not described
Experiment: ELISA, coated antigen
Protocol: as §2, §3

T6 sequence (G7PSE7 entry or part of it): as the sequence (Q9NZQ7 19-238 limits assumed) above, with A33T, A34S, S62N, R68Q, Q82R, F173L, T185A, T192I, H215L counted along it

| EC50 | Binder |
| --- | --- |
| 21 pM | B10 |
| 25 pM | B11 |

Biological target: T7, rat PD-L1 antigen (ACROBiosystems) (rat, UniProt D4AE25 19-239)
T7 construct: Bought antigen coated on ELISA plates; construct not described
Experiment: ELISA, coated antigen
Protocol: as §2, §3

T7 sequence (D4AE25 entry or part of it limits assumed): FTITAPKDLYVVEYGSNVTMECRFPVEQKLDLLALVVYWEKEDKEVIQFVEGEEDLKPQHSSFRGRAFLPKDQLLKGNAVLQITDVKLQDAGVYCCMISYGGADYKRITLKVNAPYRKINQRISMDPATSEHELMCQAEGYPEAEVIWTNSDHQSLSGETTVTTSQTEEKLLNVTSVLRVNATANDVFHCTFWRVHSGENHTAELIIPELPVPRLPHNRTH

| binding result | Binder |
| --- | --- |
| no binding | B10 |
| no binding | B11 |

Biological target: T8, mouse PD-L1 antigen (ACROBiosystems) (mouse, UniProt Q9EP73 19-239)
T8 construct: Bought antigen coated on ELISA plates; construct not described
Experiment: ELISA, coated antigen
Protocol: as §2, §3

T8 sequence (Q9EP73 19-239 limits assumed): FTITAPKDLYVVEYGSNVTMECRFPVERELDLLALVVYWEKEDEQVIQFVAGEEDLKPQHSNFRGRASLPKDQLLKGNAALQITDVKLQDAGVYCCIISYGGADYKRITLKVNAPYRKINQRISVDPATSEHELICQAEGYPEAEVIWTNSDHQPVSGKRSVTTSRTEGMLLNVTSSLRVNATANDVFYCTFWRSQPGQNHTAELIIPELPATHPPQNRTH

| binding result | Binder |
| --- | --- |
| no binding | B10 |
| no binding | B11 |

Biological target: T9, CD40 on HEK-Blue CD40L cells (InvivoGen) (UniProt P25942 21-277, limits assumed)
Experiment: cell-based or functional assay

T9 sequence (P25942 21-277 limits assumed): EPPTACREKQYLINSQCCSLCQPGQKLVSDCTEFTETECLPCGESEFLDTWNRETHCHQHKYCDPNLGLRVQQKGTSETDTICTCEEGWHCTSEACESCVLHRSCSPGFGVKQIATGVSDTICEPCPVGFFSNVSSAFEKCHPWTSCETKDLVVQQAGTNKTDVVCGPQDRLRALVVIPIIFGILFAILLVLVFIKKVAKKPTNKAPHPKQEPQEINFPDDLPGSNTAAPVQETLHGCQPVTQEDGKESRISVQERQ

| CD40 agonistic activity (A)/(B) Ratio, EC50 without over with CHO/PD-L1 | CD40 agonistic activity EC50 (nM) with CHO/PD-L1 (B), SEAP reporter | CD40 agonistic activity EC50 (nM) without CHO/PD-L1 (A), SEAP reporter | Binder |
| --- | --- | --- | --- |
| 2.2 | 0.018 nM | 0.039 nM | B10 |
| 3.2 | 0.024 nM | 0.075 nM | B11 |

Biological target: T9, CD40 on HEK-Blue CD40L cells (InvivoGen)
Experiment: flow cytometry, competition with 10 nM Biotin-CD40L on HEK-Blue CD40L cells
Protocol: The blocking effect of bispecific antibodies on CD40/CD40L binding was tested using HEK-Blue CD40L cells that highly express CD40. The specific method is as follows: HEK-Blue CD40L cells were collected and resuspended in pre-cooled PBS containing 2% FBS at a density of 1E7 cells/mL, and then added to a 96-well plate at 50 μL per well, i.e., 5E5 cells/well. Biotin-CD40L (FutureGen Biopharmaceutical) and serially diluted bispecific antibody were then added at 50 μL per well, with a final concentration of Biotin-CD40L of 10 nM, and the plate was incubated at 4° C. for 1 hour. The wells were washed twice with pre-cooled PBS. Streptavidin-PE (BioLegend, Cat. No. 405203) diluted in pre-cooled PBS containing 2% FBS was added, and the plate was incubated at 4° C. for 30 minutes. The wells were washed twice with pre-cooled PBS. The cells were then resuspended in pre-cooled PBS containing 2% FBS and assayed by flow cytometry.

| IC50 | Binder |
| --- | --- |
| 807 pM | B10 |
| 1090 pM | B11 |

Biological target: T2, human CD40 antigen (ACROBiosystems)
Experiment: bridging ELISA: coated human CD40, serially diluted bispecific antibody, detection with biotin-labeled human PD-L1 and streptavidin-HRP, OD450
Protocol: Antigen human CD40 (purchased from ACROBiosystems) was coated with 1 μg/mL carbonate buffer (pH=9.6) in an ELISA plate at 100 μL per well, followed by incubation at 4° C. overnight. The wells were washed 5 times with PBST. 300 μL/well of PBST containing 1% BSA was added to block the wells, and the plate was incubated at room temperature for 1 hour. The wells were washed 5 times with PBST. […] The wells were washed 5 times with PBST. Biotin-labeled human PD-L1 (FutureGen Biopharmaceutical) diluted with PBST containing 1% BSA was added at 100 μL per well, and the plate was incubated at room temperature for 1 hour. The wells were washed 5 times with PBST. Streptavidin-HRP (BioLegend, Cat. No. 405210) diluted with PBST containing 1% BSA was added at 100 μL per well, and the plate was incubated at room temperature for 30 minutes. Colorimetric substrate TMB was added at 100 μL per well and allowed to develop color at room temperature for 10 minutes, followed by the addition of 1 M sulfuric acid to terminate the reaction. The OD_[…] was read on a microplate reader to analyze the results, and the EC₅₀ was calculated using a 4-parameter fit binding curve.

| EC50 | Binder |
| --- | --- |
| 39 pM | B10 |
| 38 pM | B11 |
